From the supplement of paper PMC10567573

B1: FAM164A (parent)
chain: YDPDYIQCPYCQRRFNENAADRHI

Variants of: B1
Assay: protein stability index of a GFP-peptide fusion (GPS, HEK-293T) (PSI 1-6); higher = more stable
Conditions: c terminus: a fixed tail appended
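Further: lentivirally expressed fusions sorted by FACS into six bins by GFP to DsRed ratio, PSI derived from sequencing read proportions per bin multiplied by bin number.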

| Variant | protein stability index |
| --- | --- |
| YDPDYIQCPYCQRRHNENAADRHI | 3.14 |
| YDPDYIQCPYCQRRINENAADRHI | 4.21 |
| YDPDYIQCPYCQRRKNENAADRHI | 3.54 |
| YDPDYIQCPYCQRRLNENAADRHI | 3.77 |
| YDPDYIQCPYCQRRMNENAADRHI | 3.66 |
| YDPDYIQCPYCQRRNNENAADRHI | 3.18 |
| YDPDYIQCPYCQRRPNENAADRHI | 2.8 |
| YDPDYIQCPYCQRRQNENAADRHI | 3.4 |
| YDPDYIQCPYCQRRRNENAADRHI | 3.59 |
| YDPDYIQCPYCQRRSNENAADRHI | 2.93 |
| YDPDYIQCPYCQRRTNENAADRHI | 2.48 |
| YDPDYIQCPYCQRRVNENAADRHI | 3.06 |
| YDPDYIQCPYCQRRWNENAADRHI | 4 |
| YDPDYIQCPYCQRRYNENAADRHI | 3.47 |
| YDPDYIQCPYCQRRFAENAADRHI | 4.63 |
| YDPDYIQCPYCQRRFCENAADRHI | 4.37 |
| YDPDYIQCPYCQRRFDENAADRHI | 3.79 |
| YDPDYIQCPYCQRRFEENAADRHI | 3.97 |
| YDPDYIQCPYCQRRFFENAADRHI | 4.49 |
| YDPDYIQCPYCQRRFGENAADRHI | 3.71 |
| YDPDYIQCPYCQRRFHENAADRHI | 3.8 |
| YDPDYIQCPYCQRRFIENAADRHI | 4.75 |
| YDPDYIQCPYCQRRFKENAADRHI | 4.8 |
| YDPDYIQCPYCQRRFLENAADRHI | 4.45 |

| Variant | protein stability index |
| --- | --- |
| YDPDYIQCPYCQRRFMENAADRHI | 4.54 |
| YDPDYIQCPYCQRRFPENAADRHI | 5.53 |
| YDPDYIQCPYCQRRFQENAADRHI | 4.56 |
| YDPDYIQCPYCQRRFRENAADRHI | 5.19 |
| YDPDYIQCPYCQRRFSENAADRHI | 4.56 |
| YDPDYIQCPYCQRRFTENAADRHI | 4.48 |
| YDPDYIQCPYCQRRFVENAADRHI | 4.39 |
| YDPDYIQCPYCQRRFWENAADRHI | 4.61 |
| YDPDYIQCPYCQRRFYENAADRHI | 4.94 |
| YDPDYIQCPYCQRRFNANAADRHI | 5.13 |
| YDPDYIQCPYCQRRFNCNAADRHI | 5.13 |
| YDPDYIQCPYCQRRFNDNAADRHI | 4.37 |
| YDPDYIQCPYCQRRFNFNAADRHI | 5.14 |
| YDPDYIQCPYCQRRFNGNAADRHI | 4.5 |
| YDPDYIQCPYCQRRFNHNAADRHI | 4.97 |
| YDPDYIQCPYCQRRFNINAADRHI | 5.23 |
| YDPDYIQCPYCQRRFNKNAADRHI | 5.07 |
| YDPDYIQCPYCQRRFNLNAADRHI | 5.16 |
| YDPDYIQCPYCQRRFNMNAADRHI | 5.01 |
| YDPDYIQCPYCQRRFNNNAADRHI | 5.01 |
| YDPDYIQCPYCQRRFNPNAADRHI | 5.37 |
| YDPDYIQCPYCQRRFNQNAADRHI | 4.94 |
| YDPDYIQCPYCQRRFNRNAADRHI | 4.89 |
| YDPDYIQCPYCQRRFNSNAADRHI | 4.69 |

| Variant | protein stability index |
| --- | --- |
| YDPDYIQCPYCQRRFNTNAADRHI | 4.91 |
| YDPDYIQCPYCQRRFNVNAADRHI | 5.04 |
| YDPDYIQCPYCQRRFNWNAADRHI | 4.77 |
| YDPDYIQCPYCQRRFNYNAADRHI | 4.68 |
| YDPDYIQCPYCQRRFNEAAADRHI | 4.22 |
| YDPDYIQCPYCQRRFNECAADRHI | 4.15 |
| YDPDYIQCPYCQRRFNEDAADRHI | 4.5 |
| YDPDYIQCPYCQRRFNEEAADRHI | 4.26 |
| YDPDYIQCPYCQRRFNEFAADRHI | 3.22 |
| YDPDYIQCPYCQRRFNEGAADRHI | 3.92 |
| YDPDYIQCPYCQRRFNEHAADRHI | 4.37 |
| YDPDYIQCPYCQRRFNEIAADRHI | 3.36 |
| YDPDYIQCPYCQRRFNEKAADRHI | 4.11 |
| YDPDYIQCPYCQRRFNELAADRHI | 3.93 |
| YDPDYIQCPYCQRRFNEMAADRHI | 3.48 |
| YDPDYIQCPYCQRRFNEPAADRHI | 3.91 |
| YDPDYIQCPYCQRRFNEQAADRHI | 4.76 |
| YDPDYIQCPYCQRRFNERAADRHI | 3.71 |
| YDPDYIQCPYCQRRFNESAADRHI | 4.28 |
| YDPDYIQCPYCQRRFNETAADRHI | 4.11 |
| YDPDYIQCPYCQRRFNEVAADRHI | 3.86 |
| YDPDYIQCPYCQRRFNEWAADRHI | 3.4 |
| YDPDYIQCPYCQRRFNEYAADRHI | 3.72 |
| YDPDYIQCPYCQRRFNENCADRHI | 4.42 |

| Variant | protein stability index |
| --- | --- |
| YDPDYIQCPYCQRRFNENDADRHI | 4.47 |
| YDPDYIQCPYCQRRFNENEADRHI | 4.61 |
| YDPDYIQCPYCQRRFNENFADRHI | 4.24 |
| YDPDYIQCPYCQRRFNENGADRHI | 4.41 |
| YDPDYIQCPYCQRRFNENHADRHI | 4.12 |
| YDPDYIQCPYCQRRFNENIADRHI | 4.02 |
| YDPDYIQCPYCQRRFNENKADRHI | 4 |
| YDPDYIQCPYCQRRFNENLADRHI | 4.03 |
| YDPDYIQCPYCQRRFNENMADRHI | 3.88 |
| YDPDYIQCPYCQRRFNENNADRHI | 4.37 |
| YDPDYIQCPYCQRRFNENPADRHI | 4.03 |
| YDPDYIQCPYCQRRFNENQADRHI | 4.37 |
| YDPDYIQCPYCQRRFNENRADRHI | 4.11 |
| YDPDYIQCPYCQRRFNENSADRHI | 4.59 |
| YDPDYIQCPYCQRRFNENTADRHI | 4.51 |
| YDPDYIQCPYCQRRFNENVADRHI | 3.82 |
| YDPDYIQCPYCQRRFNENWADRHI | 3.66 |
| YDPDYIQCPYCQRRFNENYADRHI | 3.58 |
| YDPDYIQCPYCQRRFNENACDRHI | 4.44 |
| YDPDYIQCPYCQRRFNENADDRHI | 4.25 |
| YDPDYIQCPYCQRRFNENAEDRHI | 4.34 |
| YDPDYIQCPYCQRRFNENAFDRHI | 3.87 |
